For orientation: pKd means −log10 of the Kd, conventionally taken in molar units.

T1: DLG3_1, Q92796
T1 sequence (Q92796 125-227, limits assumed, looked up): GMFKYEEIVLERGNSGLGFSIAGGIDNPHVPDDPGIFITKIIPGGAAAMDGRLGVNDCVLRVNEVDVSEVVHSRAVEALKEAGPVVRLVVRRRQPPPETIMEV

For the first experiment, the target named is T1, DLG3_1, Q92796. The experiment can be described thus: holdup assay. Further details: key: below the threshold = too weak to quantify, mostly under pKd 3.1 to 4. The settings on record: plain residues with an end cap or a label only (N-terminal biotin on a linker: ado-ado).
RDPPAEWTRV [PTPN18, Q99952]: the pKd was 3.61. The same measure, in the same setting: the value for TISFTQTSQF [SLC1A1, P43005] was “below the threshold”. Same read-out and setting: the value for RSSGGDDFWF [KCNV1, Q6PIU1] was “below the threshold”.

Regarding KKMLQRRTLL [OR8G1, Q15617], the pKd result is on record as “below the threshold”.

The molecule NIAESLESLV [PTPRZ1, P23471] came in with a pKd of 4.29. Same read-out and setting: the value for NNNVVKVDSV [MTNR1A, P48039] was “below the threshold”; that for REEPDHSTEV [CCRL2, O00421] was 4.26. The same measure, in the same setting: the value for DFLSTFHIRI [CIB2, O75838] was “below the threshold”; that for ARGPPRESEV [FAM110D, Q8TAY7] was 4.3; that for PPGKHLVTEV [KCNA7, Q96RP8] was 4.21. Turning to PYSESDDDWC [CACNA1A, O00555], the pKd entry is given as “below the threshold”.

Regarding GTGYDRKDYV [CLDN3, O15551], the pKd entry is given as “below the threshold”. Regarding DGVNEKVSCV [HTR2A, P28223], the pKd entry was “below the threshold”. Molecule PSHPRLQTHV [KIRREL2, Q6UWL6] had a pKd of 3.55.

In the case of QSYPSKHDYV [CLDN18, P56856], the pKd result was “below the threshold”. The same measure, in the same setting: then SLNANEVEWF [RNF130, Q86XS8], with “below the threshold”.

Regarding EPQYQPGENL [SRC, P12931], the pKd result is reported as “below the threshold”. NISYRRESAI [KCNJ4, P48050]: the pKd entry is recorded as “below the threshold”. In the case of MHIQEKGFHV [EPHA6, Q9UF33], the pKd entry is “below the threshold”. Take ARSAAASNYV [CLDN4, O14493]: the pKd result is on record as “below the threshold”. Still for that read-out and setting: the value for NTANRRTTPV [CACNG2, Q9Y698] was 3.61.

With IDESKKEWLI [CNTNAP2, Q9UHC6], the pKd entry is “below the threshold”. For QSGLYESEEL [MYOT, Q9UBF9], the pKd result is on record as “below the threshold”. On to SRSVVESDEL [MYPN, Q86TC9], for which the pKd result is “below the threshold”. Same read-out and setting: the value for NTLNRKTTPV [CACNG8, Q8WXS5] was 3.58; that for SVTSERETNI [SLC16A7, O60669] was “below the threshold”; that for LKDDELKTKL [SLCO1A2, P46721] was “below the threshold”. Take APIAGFSSFV [SDK2, Q58EX2]: the pKd turned out to be 3.88. The same measure, in the same setting: the value for PTPDLPQTRV [KLHDC7A, Q5VTJ3] was “below the threshold”; that for RQKEVRESKC [SCN8A, Q9UQD0] was “below the threshold”; that for NVYGIESVKI [GRIA2, P42262] was 3.5.

Turning to ELSATVTTDC [TRIP6, Q15654], the pKd result is “below the threshold”. In the case of LPAVCYDIDI [PTTG2, Q9NZH5], the pKd entry is “below the threshold”. For the molecule VLYPREGTEV [FOXI1, Q12951], the pKd is 4.03.

Molecule VKRNSKETVV [MARCHF3, Q86UD3] displayed a pKd of 4.77. For SPDRDRESIV [SCN5A, Q14524], the pKd worked out at 3.9. On the same count and under the same terms, the value for ILRKSTTTTV [PRR16, Q569H4] was 4.26; that for GIKKITSTAL [RPS6KA3, P51812] was 3.61. Still for that read-out and setting: the value for EDPRVEVTQF [SLC22A9, Q8IVM8] was “below the threshold”. On the same count and under the same terms, the value for PSVGSKKTVL [REELD1, A0A1B0GV85] was “below the threshold”; that for DDASLPVSDV [PLEKHA1, Q9HB21] was “below the threshold”. As to SFISKKEWYV [NECTIN1, Q15223], the pKd result is “below the threshold”. The same measure, in the same setting: the value for DPAESMESLV [PTPRG, P23470] was 4.23; that for MQHQRTHTRV [ZSCAN30, Q86W11] was 4.03. Same read-out and setting: then ARESQKVSHV [FAM110B, Q8TC76], with “below the threshold”; and AEASVACSLC [PTGIR, P43119], with “below the threshold”. Still for that read-out and setting: the value for QRPYRRGSEI [KCNJ18, B7U540] was “below the threshold”. EIPAQSPTCV [FZD10, Q9ULW2] yielded a pKd of 3.72. On the same count and under the same terms, then AQRARSPSDV [GPR12, P47775], with “below the threshold”; and GEDRSPPTAL [MKNK1, Q9BUB5], with “below the threshold”; and DRIQSCLSDA [SBF1, O95248], with “below the threshold”. The molecule STKRKLASAV [NCF1, P14598] had a pKd of 3.49. The same measure, in the same setting: then DTKNYKQTSV [CRIPT, Q9P021], with 3.69.

The molecule TNSRHGETTV [FZD2, Q14332] showed a pKd of 4.33. RFQQRMQTHV [KIRREL1, Q96J84] showed a negative-log Kd (pKd) of 3.57. On the same count and under the same terms, the value for EDGESWEYQI [TRPV6, Q9H1D0] was “below the threshold”; that for LAHVKHKEQI [AQP3, Q92482] was “below the threshold”. Still for that read-out and setting: then LESTTVGTSV [KARS1, Q15046], with 3.98.

The same experiment, now with this note: plain residues with an end cap or a label only (N-terminal biotin on a linker: ahx).
As for QNTDDVQTSF [ACE2, Q9BYF1], the pKd entry is on record as “below the threshold”.

Turning to EKQAKGDTEF [CACYBP, Q9HB71], the pKd result is “below the threshold”.

As for QPRTWLQSPV [RTKN, Q9BST9], the pKd entry is given as “below the threshold”. On to APSRKLNTEI [TIAM1, Q13009], for which the negative-log Kd (pKd) result is listed as “below the threshold”. TQKFRASTAL [FRMPD1, Q5SYB0]: the pKd result is “below the threshold”. The same measure, in the same setting: then TESNLQTSSC [CGN, Q9P2M7], with “below the threshold”; and QDEKVKESYV [ABCA1, O95477], with 4.29.

The record behind these values is paper PMC9482650, “Quantitative fragmentomics allow affinity mapping of interactomes” (Nature Communications, 2022).
